Assay results as given in article PMC2928650.

Target: T1, Ets1 280-441 (UniProt P14921 280-441)
T1 sequence: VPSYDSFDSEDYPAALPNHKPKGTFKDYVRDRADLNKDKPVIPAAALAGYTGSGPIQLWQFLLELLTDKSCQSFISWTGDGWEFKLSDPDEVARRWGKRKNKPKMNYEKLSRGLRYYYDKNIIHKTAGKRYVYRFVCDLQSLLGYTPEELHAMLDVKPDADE
Assay: X-ray crystallography

B1: stromelysin-1 EBS palindrome, crystal duplex (dsDNA)
DNA 1: CAGGAAGCACTTCCTG
DNA 2: GCAGGAAGTGCTTCCT
B1: binds.
